Columns and labels:
BcGT-1 = test system: T1, BcGT-1; assay: UPLC-PDA glycosylation assay, Michaelis-Menten fit; assay type: biochemical, Bacillus cereus; conditions: 10 mM UDP-glucose, 10 mM MgCl2, Tris-HCl pH 7.5, 37 °C, 10 min; read-out: Acceptor substrate (epothilone A) / K m
T1 construct: synthetic gene in pET28a, His tag, E. coli BL21(DE3), nickel-purified
Text: UPLC-PDA glycosylation assay, Michaelis-Menten fit on BcGT-1

BsGT-2 = target: T2, BsGT-2 (Bacillus subtilis, UniProt O05496); assay: LC-MS conversion assay; assay type: biochemical; conditions: assay mix 0.5 mM epothilone A, 3 mM UDP-glucose, 10 mM MgCl2, Tris-HCl, 400 μg/ml enzyme, no HPLC product peak, Km not determined
T2 construct: gene ydhE; synthetic gene in pET28a, His tag, E. coli BL21(DE3), nickel-purified

BssGT = test system: T3, BssGT; assay: UPLC-PDA glycosylation assay, Michaelis-Menten fit; assay type: biochemical, Bacillus inaquosorum; conditions: 10 mM UDP-glucose, 10 mM MgCl2, Tris-HCl pH 7.5, 37 °C, 10 min; read-out: Acceptor substrate (epothilone A) / K m
T3 construct: synthetic gene in pET28a, His tag, E. coli BL21(DE3), nickel-purified
Text: UPLC-PDA glycosylation assay, Michaelis-Menten fit on BssGT

[1] = test system: C/C(=C\c1csc(C)n1)[C@@H]1C[C@@H]2O[C@@H]2CCC[C@H](C)[C@H](O)[C@@H](C)C(=O)C(C)(C)[C@@H](O)CC(=O)O1; assay: UPLC-PDA glycosylation assay, Michaelis-Menten fit; assay type: biochemical, Bacillus atrophaeus; conditions: 10 mM UDP-glucose, 10 mM MgCl2, Tris-HCl pH 7.5, 37 °C, 10 min
Text: UPLC-PDA glycosylation assay, Michaelis-Menten fit on BaGT

[2] = test system: C/C(=C\c1csc(C)n1)[C@@H]1C[C@@H]2O[C@@H]2CCC[C@H](C)[C@H](O)[C@@H](C)C(=O)C(C)(C)[C@@H](O)CC(=O)O1; assay: UPLC-PDA glycosylation assay, Michaelis-Menten fit; assay type: biochemical, Bacillus velezensis; conditions: 10 mM UDP-glucose, 10 mM MgCl2, Tris-HCl pH 7.5, 37 °C, 10 min
Text: UPLC-PDA glycosylation assay, Michaelis-Menten fit on BamGT

[3] = test system: C/C(=C\c1csc(C)n1)[C@@H]1C[C@@H]2O[C@@H]2CCC[C@H](C)[C@H](O)[C@@H](C)C(=O)C(C)(C)[C@@H](O)CC(=O)O1; assay: UPLC-PDA glycosylation assay, Michaelis-Menten fit; assay type: biochemical, Bacillus licheniformis; conditions: 10 mM UDP-glucose, 10 mM MgCl2, Tris-HCl pH 7.5, 37 °C, 10 min
Text: UPLC-PDA glycosylation assay, Michaelis-Menten fit on YjiC

[4] = test system: C/C(=C\c1csc(C)n1)[C@@H]1C[C@@H]2O[C@@H]2CCC[C@H](C)[C@H](O)[C@@H](C)C(=O)C(C)(C)[C@@H](O)CC(=O)O1; assay: UPLC-PDA glycosylation assay, Michaelis-Menten fit; assay type: biochemical, Bacillus subtilis; conditions: 10 mM UDP-glucose, 10 mM MgCl2, Tris-HCl pH 7.5, 37 °C, 10 min
Text: UPLC-PDA glycosylation assay, Michaelis-Menten fit on YojK

T2 sequence (O05496 whole entry): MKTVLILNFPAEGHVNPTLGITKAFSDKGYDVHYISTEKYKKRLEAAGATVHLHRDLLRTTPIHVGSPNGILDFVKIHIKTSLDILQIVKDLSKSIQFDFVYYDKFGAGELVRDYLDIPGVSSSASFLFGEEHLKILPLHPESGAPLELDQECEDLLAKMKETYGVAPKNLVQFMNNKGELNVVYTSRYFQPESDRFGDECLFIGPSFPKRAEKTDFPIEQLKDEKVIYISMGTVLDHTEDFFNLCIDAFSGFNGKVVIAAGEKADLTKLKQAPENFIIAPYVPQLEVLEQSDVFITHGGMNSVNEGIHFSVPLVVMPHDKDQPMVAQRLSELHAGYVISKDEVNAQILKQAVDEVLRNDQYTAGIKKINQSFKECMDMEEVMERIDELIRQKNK

With `C/C(=C\c1csc(C)n1)[C@@H]1C[C@@H]2O[C@@H]2CCC[C@H](C)[C@H](O)[C@@H](C)C(=O)C(C)(C)[C@@H](O)CC(=O)O1` [epothilone A] the Km (BcGT-1) was 1.2 ± 0.215 mM, the “% conversion after 10 h” value (BsGT-2) was 0.03% and the Km (BssGT) was 1.59 ± 0.117 mM.
BaGT (Bacillus atrophaeus 1942) gave a Km [1] of 113.66 ± 10.55 µM, a kcat [1] of 0.113 ± 0.00417 s⁻¹ and a kcat/Km [1] of 990 M⁻¹ s⁻¹.
Compound BamGT (Bacillus velezensis FZB42) has a Km [2] of 2245.74 ± 311.96 µM, a kcat [2] of 0.0182 ± 0.00117 s⁻¹ and a kcat/Km [2] of 8.33 M⁻¹ s⁻¹.
For “YjiC (Bacillus licheniformis DSM 13 = ATCC 14580)”, the Km [3] was 94.58 ± 2.95 µM, the kcat [3] was 0.192 ± 0.00317 s⁻¹ and the kcat/Km [3] was 2030 M⁻¹ s⁻¹.
“YojK (Bacillus subtilis subsp. subtilis str. 168)” showed a Km [4] of 1720.77 ± 161.35 µM, a kcat [4] of 0.0205 ± 0.00117 s⁻¹ and a kcat/Km [4] of 11.8 M⁻¹ s⁻¹.
